Assay results: publication PMC10138814, “Structural Insights into the Binding of Red Fluorescent Protein mCherry-Specific Nanobodies” (International Journal of Molecular Sciences, 2023)

B1: His-SUMO-LaM3 (VHH)
VHH: QVQLVQSGGGLVQAGGSLRLSCAASGRTFSDIAVGWFRQTPGKEREFVAAISWSGLIINYGDSVEDRFTISRDNAKSAVYLQMNSLKPEDTAVYYCAARIGMNYYYAREIEYPYWGQGTQVTVSK
notes: held in PDB 8ILX; Captured by its His tag on NTA biosensors in BLI; vector pET28a-SUMO; also called Sumo-His tagged LaM3; source: E. coli BL21(DE3), purified (Ni-NTA, eluted with imidazole); not shown: His, N-terminal, kept; SUMO, N-terminal, kept
B2: LaM3 (VHH)
VHH: B1 VHH
notes: Tag-removed form; also called llama nanobody against mCherry 3; source: E. coli BL21(DE3), purified (Ni-NTA, ULP1 cleavage on the column, ion exchange or size exclusion chromatography); not shown: His, N-terminal, cleaved; SUMO, N-terminal, cleaved
B3: His-SUMO-LaM8 (VHH)
VHH: QVQLVESGGGLVQAGGSLRLSCAVSGRPFSEYNLGWFRQAPGKEREFVARIRSSGTTVYTDSVKGRFSASRDNAKNMGYLQLNSLEPEDTAVYYCAMSRVDTDSPAFYDYWGQGTQVTVST
notes: held in PDB 8IM0; Captured by its His tag on NTA biosensors in BLI; vector pET28a-SUMO; also called Sumo-His tagged LaM8; source: E. coli BL21(DE3), purified (Ni-NTA, eluted with imidazole); not shown: His, N-terminal, kept; SUMO, N-terminal, kept
B4: LaM8 (VHH)
VHH: B3 VHH
notes: Tag-removed form; also called llama nanobody against mCherry 8; source: E. coli BL21(DE3), purified (Ni-NTA, ULP1 cleavage on the column, ion exchange or size exclusion chromatography); not shown: His, N-terminal, cleaved; SUMO, N-terminal, cleaved
B5: His-SUMO-LaM1 (VHH)
VHH: QVQLVESGGGLVQAGDSLRLSCAASGRTFENYAMGWFRQAPGKEREFVGAVSWGGGRTYYADNVKGRFTISRDNAKKNTVYLQMNSLKPEDTAVYYCAAKSVLTIATMRVPDEYNYWGQGTQVTVS
notes: held in PDB 8IM1; Captured by its His tag on NTA biosensors in BLI; vector pET28a-SUMO; also called Sumo-His tagged LaM1; source: E. coli BL21(DE3), purified (Ni-NTA, eluted with imidazole); not shown: His, N-terminal, kept; SUMO, N-terminal, kept
B6: LaM1 (VHH)
VHH: B5 VHH
notes: Tag-removed form; also called llama nanobody against mCherry 1; source: E. coli BL21(DE3), purified (Ni-NTA, ULP1 cleavage on the column, ion exchange or size exclusion chromatography); not shown: His, N-terminal, cleaved; SUMO, N-terminal, cleaved

Key:
Conditions in all cases: both partners purified
DsRed = target: T1, DsRed (Discosoma sp., UniProt Q9U6Y8); assay: BLI; His-SUMO-LaM nanobody (100 nM) loaded on Ni-NTA biosensors; mCherry or DsRed in solution; 20 mM HEPES pH 7.4, 150 mM NaCl, 0.005% Tween-20; association 600 s, dissociation 600 s; 1:1 global fit
T1 construct: DsRed red fluorescent protein; PDB 1ZGO was used for structural alignment; His6-SUMO-DsRed printed as 39.6 kD; also called tetrameric DsRed protein; His6-SUMO-DsRed (before cleavage); source: prokaryotic expression system, purified (tags removed by ULP1 on the column); not shown: His6, N-terminal, cleaved; SUMO, N-terminal, cleaved
T1 sequence (Q9U6Y8 whole entry): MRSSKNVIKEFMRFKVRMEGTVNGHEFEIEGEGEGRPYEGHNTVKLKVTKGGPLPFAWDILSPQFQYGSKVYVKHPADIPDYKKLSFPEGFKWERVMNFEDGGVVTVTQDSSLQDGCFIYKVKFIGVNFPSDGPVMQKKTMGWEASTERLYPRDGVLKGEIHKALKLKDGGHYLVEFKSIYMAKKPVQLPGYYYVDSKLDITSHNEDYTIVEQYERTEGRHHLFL

mCherry [1] = target: T2, mCherry (Discosoma sp. DsRed-derived, engineered …, chromophore (residues not given)); assay: as above
T2 construct: Engineered monomeric derivative of DsRed; also called His10-TEV site-mCherry (before cleavage); H10T-mCherry; source: E. coli BL21(DE3), purified (Ni-NTA, TEV cleavage on the column); not shown: His10, N-terminal, cleaved

mCherry [2] = target: T2, mCherry; assay: ITC; 100 uM nanobody in the syringe into 10 uM mCherry (or 8.9 uM mCherry-LaM1 or mCherry-LaM3 complex) in the cell; 25 °C; one set of sites

| Binder | Kd (DsRed) | koff (DsRed) | kon (DsRed) | Kd (mCherry [1]) | koff (mCherry [1]) | kon (mCherry [1]) | Kd (mCherry [2]) | dH (mCherry [2]) | stoichiometry N (mCherry [2]) |
| --- | --- | --- | --- | --- | --- | --- | --- | --- | --- |
| B1 | 7130 nM | 0.000443 s⁻¹ | 62.2 ± 1.02 M⁻¹ s⁻¹ | 30.6 nM | 0.00324 s⁻¹ | 106000 M⁻¹ s⁻¹ |  |  |  |
| B2 |  |  |  |  |  |  | 13.7 nM | -13.7 ± 0.157 kcal/mol | 0.913 sites |
| B3 |  |  |  | 36.8 nM | 0.00926 s⁻¹ | 252000 M⁻¹ s⁻¹ |  |  |  |
| B4 |  |  |  |  |  |  | 199 nM | -11.2 ± 1.51 kcal/mol | 0.842 sites |
| B5 |  |  |  | 12.9 nM | 0.00117 s⁻¹ | 91300 M⁻¹ s⁻¹ |  |  |  |
| B6 |  |  |  |  |  |  | 289 nM | -28.7 ± 0.906 kcal/mol | 1 sites |
